Experimental data taken from patent publication US20220073619A1 (IMCHECK THERAPEUTICS, published 2022).

Tests used:
[1] = biological target: Human BTN3A, membrane displayed on cells (human PBMCs, Daudi cells, SKOV-3 cells) (human), O00481; test: cell-based or functional assay
[2] = biological target: T1, Human BTN3A1 His-tagged antigen (Sino Biological Cat. No. 15973-H08H) (human, UniProt O00481 30-254); test: SPR Biacore T200, single cycle kinetics, BTN3A1-His captured on anti-His CM5 chip, Fab as analyte, 1:1 model, 25 C
T1 construct: Bought recombinant protein; also called recombinant human BTN3A1-His; not shown: His tag
T1 sequence (O00481 30-254 limits assumed): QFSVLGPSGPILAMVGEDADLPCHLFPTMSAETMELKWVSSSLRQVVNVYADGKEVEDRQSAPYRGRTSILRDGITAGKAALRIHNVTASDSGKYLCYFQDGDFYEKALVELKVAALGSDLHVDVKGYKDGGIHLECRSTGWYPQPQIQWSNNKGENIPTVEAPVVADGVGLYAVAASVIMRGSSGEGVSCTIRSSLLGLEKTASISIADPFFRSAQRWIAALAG
Protocol: All single cycle kinetic experiments were run at 25° C. with HBS-P+ running buffer (pH 7.4) containing 0.1% BSA (GE Healthcare, Little Chalfont, UK).
Human BTN3A1 His-tagged antigen (Sino Biological, Beijing, China) was diluted in running buffer to a final concentration of 0.4 μg/mL. At the start of each cycle, BTN3A1-His was captured onto Fc2 of CM5 sensor chip pre-coupled using a His capture kit (GE Healthcare, Little Chalfont, UK) with standard amine chemistry at a flow rate of 10 μL/min. An immobilization level (RL) of ˜17 RU or 8 RU, the different theoretical values to obtain a RMax of ˜25 RU was used for the analytes Fab and F(ab′)₂ respectively. The surface was then allowed to stabilize. Single cycle kinetics data was obtained with the purified samples (Fab and F(ab′)₂)) at a flow rate of 40 μL/min to minimize any potential mass transfer effects. The signal from the reference channel Fc1 (no antigen capture) was subtracted from that of Fc2 to correct for differences in non-specific binding to the reference surface. […] The signal for BTN3A1-His blank runs (no analyte) were subtracted to correct for differences in surface stability. The association phase for the five injections of increasing concentrations was monitored for 240 seconds each time and a single dissociation phase was measured for 2000 seconds following the last injection of analyte. Regeneration of the chip surface was conducted using two injections of 10 mM glycine-HCL pH 1.5 followed by a stabilization period of 240 seconds.
Raw sensorgrams were fitted with a 1:1 model for Fab samples and with a bivalent analyte model for F(ab′)₂ samples in agreement with the different valences of the analytes. Kinetic constants obtained are detailed in Table 1 and Table 2.

[3] = biological target: T1, Human BTN3A1 His-tagged antigen (Sino …); test: SPR Biacore T200, single cycle kinetics, BTN3A1-His captured on anti-His CM5 chip, IgG as analyte, bivalent analyte model (kd 2), 25 C
Protocol: (§1) Human BTN3A1 His-tagged antigen (Sino Biological, Beijing, China) was diluted in running buffer to a final concentration of 0.4 μg/mL. At the start of each cycle, human BTN3A1-His was captured onto Fc2 of CM5 sensor chip pre-coupled using a His capture kit (GE Healthcare, Little Chalfont, UK) with standard amine chemistry at a flow rate of 10 μL/min. An immobilization level (RL) of ˜34 RU, 16 RU or 11 RU, the different theoretical values to obtain a RMax of ˜50 RU was used for the analytes Fab, F(ab′)₂ and IgG respectively. The surface was then allowed to stabilize. Single cycle kinetic data was obtained with the purified samples (Fab, F(ab′)₂ and IgG) at a flow rate of 40 μL/min to minimize any potential mass transfer effects. The signal from the reference channel Fc1 (no antigen capture) was subtracted from that of Fc2 to correct for differences in non-specific binding to the reference surface. The signal for human BTN3A1-His blank runs (no analyte) were subtracted to correct for differences in surface stability. The association phase for the five injections of increasing concentrations was monitored for 240 seconds each time and a single dissociation phase was measured for 1400 seconds following the last injection of analyte. Regeneration of the chip surface was conducted using two injections of 10 mM glycine-HCL pH 1.5 followed by a stabilization period of 240 seconds.

[4] = biological target: T1, Human BTN3A1 His-tagged antigen (Sino …); test: SPR Biacore T200, single cycle kinetics, BTN3A1-His captured on anti-His CM5 chip, IgG as analyte, bivalent analyte model (ka 2), 25 C
Protocol: as §1

[5] = biological target: T1, Human BTN3A1 His-tagged antigen (Sino …); test: SPR Biacore T200, single cycle kinetics, BTN3A1-His captured on anti-His CM5 chip, IgG as analyte, bivalent analyte model (kd 1), 25 C
Protocol: as §1

[6] = biological target: T1, Human BTN3A1 His-tagged antigen (Sino …); test: SPR Biacore T200, single cycle kinetics, BTN3A1-His captured on anti-His CM5 chip, IgG as analyte, bivalent analyte model (ka 1), 25 C
Protocol: as §1

[7] = biological target: T1, Human BTN3A1 His-tagged antigen (Sino …); test: BLI OctetRed96, antibody loaded on FAB2G (anti-human CH1) sensors, human BTN3A1 as analyte 1.87-60 nM, 1:1 model, 30 C
Protocol: (§2) All runs (including loading, equilibration, association/dipping of sensors into analyte, dissociation and regeneration) were performed in black 96-well plates (Greiner) at 30° C. with shaking 1000 rpm using an OctetRed96 (ForteBio). […] The association of antibody or fragments with various concentrations of human BTN3A1 (60, 30, 15, 7.5, 3.75 and 1.87 nM) was monitored for 300 s, and the dissociation was followed for typically 500 s in kinetic buffer. Fitting of the data and constant measurements were performed with the Octet Red system software (version 7.1) using the 1:1 model. A control with an irrelevant antibody was used in order to assess the absence of non-specific binding of the target protein.

[8] = biological target: T1, Human BTN3A1 His-tagged antigen (Sino …); test: SPR Biacore T200, single cycle kinetics, BTN3A1-His captured on anti-His CM5 chip, Fab as analyte, 1:1 model, 25 C; remark: listed apart in the source
Protocol: as §1

[9] = biological target: T1, Human BTN3A1 His-tagged antigen (Sino …); test: BLI OctetRed96, Fab loaded on FAB2G (anti-human CH1) sensors, human BTN3A1 as analyte 1.87-60 nM, 1:1 model, 30 C
Protocol: as §2

[10] = biological target: T1, Human BTN3A1 His-tagged antigen (Sino …); test: competition ELISA on coated BTN3A1-His, competitor murine 103.2
Protocol: Chimeric (VH0/Vκ0) and irrelevant human IgG4 (S241P, L248E) were tested on each plate for comparison.
BTN3A1 was diluted in 1×PBS to 0.5 μg/ml and 100 μL/well was coated overnight at 4° C. on a 96-well ELISA plate. The following day, the plate was washed 3× with 1×PBS/0.05% Tween (PBS-T) and blocked with 200 μL of 2% milk/PBS for 1 hour at room temperature. […] After washing the Nunc ELISA plate 3× with PBS-T, 100 μL of murine/test antibody mix was added to the ELISA plate. After one hour incubation at room temperature, the plate was washed 3 times with PBS-T and 100 μL of anti-mouse Fc HRP-labelled secondary antibody (Sigma, Dorset, UK) diluted 1:1000 in blocking buffer was applied for 1 hour at room temperature to detect bound murine antibody. The plate was washed 3 times with PBS-T following which 100 μL of TMB substrate was added and incubated for five minutes at room temperature. The reaction was stopped with 100 μl of 3.0 M hydrochloric acid and absorbance was read immediately using a Dynex plate reader at 450 nm.

[11] = biological target: T1, Human BTN3A1 His-tagged antigen (Sino …); test: SPR Biacore T200, multi-cycle kinetics, antibody captured on Protein A, BTN3A1-His as analyte, 1:1 model
Protocol: Purified antibodies were diluted to a concentration of 2 μg/mL in 2% BSA/PBS. At the start of each cycle, each antibody was captured on the Protein A at a density (RL) of 146.5 RU (theoretical value to obtain an RMax of ˜50 RU). Following capture, the surface was allowed to stabilize before injection of the BTN3A1 antigen (Sino Biological cat. no. 15973-H08H). BTN3A1 was titrated in 0.1% BSA/HBS-P+(running buffer) in a two-fold dilution range from 12 to 0.375 nM. The association phase was monitored for 360 seconds and the dissociation phase for 45 minutes (2700 seconds). Kinetic data was obtained using a flow rate of 40 μL/min to minimize any potential mass transfer effects. Regeneration of the Protein A surface was conducted using two injections of 10 mM glycine-HCL pH 1.5 at the end of each cycle. Two blanks (no BTN3A1) and a repeat of a single concentration of the analyte were performed for each tested antibody to check the stability of the surface and analyte over the kinetic cycles. The chimeric antibody was run twice. The signal from the reference channel Fc1 was subtracted from that of Fc2, Fc3 and Fc4 to correct for differences in non-specific binding to a reference surface. Additionally, blank runs were subtracted for each Fc to correct any antigen-independent signal variation, such as drift. […]

B1: Chimeric 103.2 antibody (VH0/Vκ0), full-length IgG (antibody, V domains shown)
VH: QVQMQQSGAEVVRPGTSVKVSCKASGYAFTSYLIHWIKQRPGQGLEWIGVINPRSGDSHYNEKFKDRTTLTADQSSSTAYMQLSSLTSDDSAVYFCARSDYGAYWGQGTLVTVSS
VL: DIVLTQSPVTLSVTPGDSVSLSCRASQSISNNLHWYRQKSHESPRLLIKYASQSIFGIPSRFSGSGSGTEFTLSINSVETEDFGIYFCQQSNSWPHTFGTGTKLELK
[1]
  % CD107+ of Vγ9Vδ2 T cells, co-culture with Daudi cells, antibody at 10 µg/mL: 6.96%

B2: Chimeric 103.2 Fab fragment (Fab, V domains shown)
VH: B1 VH
VL: B1 VL
[1]
  % CD107+ of Vγ9Vδ2 T cells, co-culture with Daudi cells, fragment at 10 µg/mL: 66.7%
[2]
  Kd: 1.42 nM
  koff: 0.000782 s⁻¹
  kon: 551000 M⁻¹ s⁻¹

B3: Humanized 103.2 (hu103.2) full-length antibody: 103.2 VH4/Vκ4 IgG1 L247F L248E P350S dK (antibody, V domains shown)
VH: QVQMQQSGAEVKKPGASVKVSCKASGYAFTSYLIHWIKQRPGQGLEWIGVINPRSGDSHYNEKFKDRVTMTADQSISTAYMELSRLRSDDTAVYYCARSDYGAYWGQGTLVTVSS
VL: EIVLTQSPATLSVSPGERATLSCRASQSISNNLHWYQQKPGQAPRLLIKYASQSAFGIPARFSGSGSGTEFTLTISSLQSEDFAVYFCQQSNSWPHTFGQGTKLEIK
notes: also called hu103.2 (IgG)
[3]
  kd 2: 17.6 s⁻¹
[1]
  % CD25+ of Vγ9Vδ2 T cells within PBMCs, 67 nM, 5 days: 7.9%
  % CTV dilution of Vγ9Vδ2 T cells within PBMCs, 67 nM, 5 days: 9.5%
[4]
  ka 2: 9.28 M⁻¹ s⁻¹
[5]
  koff: 0.000352 s⁻¹
[6]
  kon: 430000 M⁻¹ s⁻¹
[7]
  Kd: 1.44 nM
  koff: 0.00028 s⁻¹
  kon: 194000 M⁻¹ s⁻¹

B4: Humanized 103.2 (hu103.2) Fab fragment (Fab, V domains shown)
VH: B3 VH
VL: B3 VL
[1]
  % CD25+ of Vγ9Vδ2 T cells within PBMCs, 67 nM, 5 days: 32.7%
  % CTV dilution of Vγ9Vδ2 T cells within PBMCs, 67 nM, 5 days: 45.3%
  EC50 (nM) in Vγ9Vδ2 T cell degranulation assay (CD107) against Daudi: 0.91 nM
  EC50 (nM) in Vγ9Vδ2 T cell degranulation assay (CD107) against SKOV-3: 0.08 nM
[8]
  Kd: 1.26 nM
  koff: 0.00138 s⁻¹
  kon: 1.1e+06 M⁻¹ s⁻¹
[9]
  Kd: 2.43 nM
  koff: 0.000419 s⁻¹
  kon: 172000 M⁻¹ s⁻¹

B5: 103.2 humanized variant VH4/Vκ4 (IgG4 format of the humanization screen) (antibody, V domains shown)
VH: B3 VH
VL: B3 VL
notes: It has the same variable regions as hu103.2, which is the later IgG1 Fc-silent construct
[10]
  IC50 relative to chimeric: ≤ 2 fold of chimeric (VH0/Vκ0)
[11]
  affinity (KD) relative to chimeric: ≤ 2 fold of 103.2 chimeric (VH0/Vκ0)
